3 substances from publication PMC5433087 can be followed below.

The assay has as its target HER3 (Human, His-tagged; Sino Biological) (human) (UniProt P21860). Nature of the assay: SPR. On the technique in general: SPR reads the build-up and loss of mass on a sensor chip optically.
Sequence of UniProt P21860 (P21860 20-643): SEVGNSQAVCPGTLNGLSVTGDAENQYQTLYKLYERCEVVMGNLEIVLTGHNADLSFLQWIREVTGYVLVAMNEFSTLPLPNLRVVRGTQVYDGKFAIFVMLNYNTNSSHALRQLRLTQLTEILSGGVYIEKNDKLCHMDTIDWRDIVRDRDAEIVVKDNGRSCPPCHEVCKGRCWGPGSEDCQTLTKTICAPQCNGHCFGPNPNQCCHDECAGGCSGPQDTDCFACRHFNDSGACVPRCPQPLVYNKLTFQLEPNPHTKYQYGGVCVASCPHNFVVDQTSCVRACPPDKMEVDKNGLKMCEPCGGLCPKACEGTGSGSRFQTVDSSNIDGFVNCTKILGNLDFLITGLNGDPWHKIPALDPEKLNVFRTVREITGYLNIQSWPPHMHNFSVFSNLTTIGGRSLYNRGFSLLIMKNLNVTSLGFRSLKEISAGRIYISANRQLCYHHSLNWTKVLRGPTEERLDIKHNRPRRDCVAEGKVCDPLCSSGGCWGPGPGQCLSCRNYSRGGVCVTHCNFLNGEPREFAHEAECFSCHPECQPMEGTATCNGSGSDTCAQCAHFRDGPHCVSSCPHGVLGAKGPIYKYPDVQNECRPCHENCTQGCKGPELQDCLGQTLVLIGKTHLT
As usually defined, the Kd is the equilibrium constant for the complex coming apart. Low readings indicate tighter binding, high ones weaker binding. For the substance “bivalent HER3 affibody (two Z_(05413) domains joined by a spacer of three repeat units) (designed binder)”, the Kd was determined as 0.327 nM.

“monovalent HER3 affibody (Z_(05413) affibody) (designed binder)” displayed a Kd of 0.316 nM.

Regarding “trivalent HER3 affibody (three Z_(05413) domains joined by spacers of three repeat units) (designed binder)”, the Kd was 2.34 nM.
